Numbering of substitutions follows the chain as printed. Names and notes keep the numbering of the source.

The target in the data set is factor X (FX), P00742.
Sequence of factor X (FX), P00742 (P00742 whole entry, looked up): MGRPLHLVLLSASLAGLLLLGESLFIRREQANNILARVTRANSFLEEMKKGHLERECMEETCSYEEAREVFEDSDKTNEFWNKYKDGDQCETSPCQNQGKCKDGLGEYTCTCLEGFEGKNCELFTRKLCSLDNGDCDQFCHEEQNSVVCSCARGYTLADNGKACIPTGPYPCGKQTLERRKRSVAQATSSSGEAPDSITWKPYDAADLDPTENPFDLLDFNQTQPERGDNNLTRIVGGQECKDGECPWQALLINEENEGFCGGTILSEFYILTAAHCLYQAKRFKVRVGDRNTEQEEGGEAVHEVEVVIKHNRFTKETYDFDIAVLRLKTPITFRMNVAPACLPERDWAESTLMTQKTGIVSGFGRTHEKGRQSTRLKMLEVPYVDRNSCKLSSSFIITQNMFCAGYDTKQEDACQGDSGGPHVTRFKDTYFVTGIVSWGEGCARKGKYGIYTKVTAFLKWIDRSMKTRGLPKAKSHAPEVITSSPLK

B1: FIXa-Y94F/K98T/Y177F (protein)
chain: YNSGKLEEFVQGNLERECMEEKCSFEEAREVFENTERTTEFWKQYVDGDQCESNPCLNGGSCKDDINSYECWCPFGFEGKNCELDVTCNIKNGRCEQFCKNSADNKVVCSCTEGYRLAENQKSCEPAVPFPCGRVSVSQTSKLTRAEAVFPDVDYVNSTEAETILDNITQSTQSFNDFTRVVGGEDAKPGQFPWQVVLNGKVDAFCGGSIVNEKWIVTAAHCVETGVKITVVAGEHNIEETEHTEQKRNVIRIIPHHNFNAAINTYNHDIALLELDEPLVLNSYVTPICIADKEYTNIFLKFGSGYVSGWGRVFHKGRSALVLQYLRVPLVDRATCLRSTKFTIFNNMFCAGFHEGGRDSCQGDSGGPHVTEVEGTSFLTGIISWGEECAMKGKYGIYTKVSRYVNWIKEKTKLT
Regarding B1, the aPTT in FIX-depleted plasma: pdFIXa equivalent activity given for 0.5 µg/mL of FIXa protein (µg/mL pdFIXa activity) is 1.

B2: FIXa-Y94F/K98T/Y177F/I213V/E219G (protein)
chain: B1 chain with I383V, E388G
In the case of B2, the aPTT in FIX-depleted plasma: pdFIXa equivalent activity given for 0.5 µg/mL of FIXa protein (µg/mL pdFIXa activity) is 14.4.
